Data: patent US20190276531A1

Assays:
[1] = target: cynomolgus TIM-3 ECD fused C-terminally to human IgG1 Fc (made in-house, ExpiCHO) (cynomolgus monkey (Macaca fascicularis); human); test: SPR (IBIS MX96); TIM-3 ECD-Fc captured on anti-human IgG Fc sensor, Fab injected 1-100 nM; 1:1 Langmuir fit
[2] = target: human TIM-3 ECD fused C-terminally to human IgG1 Fc (made in-house, ExpiCHO) (human) (UniProt Q8TDQ0); test: as above
[3] = target: R-PE-labeled human TIM-3-Fc chimera protein (R&D Systems) (human) (UniProt Q8TDQ0); test: flow cytometry competition: R-PE-labelled TIM-3-Fc pre-mixed with titrated antibody, then binding to phosphatidylserine-positive apoptotic Jurkat cells (MFI); blocked ligand: phosphatidylserine; unit taken from the axis log(Concentration) µg/ml [continued) C]
[4] = target: R-PE-labeled human TIM-3-Fc chimera protein (R&D Systems) (human) (UniProt Q8TDQ0); test: flow cytometry competition: R-PE-labelled TIM-3-Fc pre-mixed with titrated antibody, then binding to phosphatidylserine-positive apoptotic Jurkat cells; blocked ligand: phosphatidylserine [continued) C]
[5] = target: R-PE-labeled human TIM-3-Fc chimera protein (R&D Systems) (human) (UniProt Q8TDQ0); test: flow cytometry competition; R-PE TIM-3-Fc preincubated with 3.125 µg/ml antibody, then apoptotic Jurkat cells showing phosphatidylserine
[6] = target: cynomolgus TIM-3 Fc fusion antigen (Sino Biologicals) (cynomolgus monkey (Macaca fascicularis)); test: ELISA; TIM-3 Fc fusion coated at 1 µg/ml, antibody titrated 2-fold from 1000 nM, HRP secondary
[7] = target: human TIM-3 Fc fusion antigen (Sino Biologicals) (human) (UniProt Q8TDQ0); test: as above
[8] = target: cynomolgus TIM-3 Fc fusion antigen (Sino Biologicals) (cynomolgus monkey (Macaca fascicularis)); test: ELISA; EC50 on cynomolgus TIM-3 over EC50 on human TIM-3

Chain of cynomolgus TIM-3 ECD fused C-terminally to human IgG1 Fc (made in-house, ExpiCHO) (cynomolgus monkey (Macaca fascicularis); human) (chain, as listed by the source limits assumed): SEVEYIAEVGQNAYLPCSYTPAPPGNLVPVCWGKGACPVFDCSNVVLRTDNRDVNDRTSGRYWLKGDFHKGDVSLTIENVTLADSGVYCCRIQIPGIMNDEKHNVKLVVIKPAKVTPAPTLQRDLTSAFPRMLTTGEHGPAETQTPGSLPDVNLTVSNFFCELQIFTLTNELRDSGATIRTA

Fab fragment of 18564 ABTIM3 (reference analogue)
Kd [1]: 25 nM
Kd [2]: 0.77 nM

reference anti-TIM-3 antibody 18571.18571 (humanized ABTIM3 analogue)
IC50 [3]: 0.782 µg/mL
TIM-3 binding (MFI) at 0.003 µg/ml antibody [4]: 8700 MFI
TIM-3 binding (MFI) at 0.012 µg/ml antibody [4]: 8730 MFI
TIM-3 binding (MFI) at 0.049 µg/ml antibody [4]: 8890 MFI
TIM-3 binding (MFI) at 0.195 µg/ml antibody [4]: 8800 MFI
TIM-3 binding (MFI) at 0.781 µg/ml antibody [4]: 4480 MFI
TIM-3 binding (MFI) at 3.125 µg/ml antibody [4]: 184 MFI
TIM-3 binding (MFI) at 12.5 µg/ml antibody [4]: 160 MFI
TIM-3 binding (MFI) at 50 µg/ml antibody [4]: 157 MFI
TIM-3-Fc binding to PtdS-positive cells left, % of the binding with non-blocking antibody 15338.15338 [5]: 3.2%

reference antibody analogue 18564 ABTIM3
EC50 [6]: 0.07 nM
EC50 [7]: 0.07 nM
Ratio Cynomolgus/Human EC50 [8]: 1
